Our source for the Km, kcat and kcat/Km values is publication PMC11267573, “A Robust α-L-Fucosidase from Prevotella nigrescens for Glycoengineering Therapeutic Antibodies” (ACS Chemical Biology, 2024).

By Km is commonly meant the concentration of substrate that gives half-maximal velocity. Usually kcat stands for the maximal rate divided by the concentration of active sites. For orientation: kcat/Km means the second-order rate constant that governs catalysis at low substrate concentration.

What all share (experiment): p-nitrophenol release, initial-rate kinetics
The target in one series is T1, MBP-PnfucA (Prevotella nigrescens, UniProt V8CPU0).
T1 construct: gene HMPREF1173_00896; pMAL-c4X, E. coli; poor purity
The format is biochemical. The settings on record: assay details in supplement; MBP fusion. From the text: p-nitrophenol release, initial-rate kinetics on MBP-PnfucA

The target in the next series is T2, MBP-AlfC (Lacticaseibacillus paracasei, UniProt A0A422MHI3).
T2 construct: gene BN194_28780; pMAL-c4X, E. coli; codon-optimized synthetic gene
T2 sequence (A0A422MHI3 1-344): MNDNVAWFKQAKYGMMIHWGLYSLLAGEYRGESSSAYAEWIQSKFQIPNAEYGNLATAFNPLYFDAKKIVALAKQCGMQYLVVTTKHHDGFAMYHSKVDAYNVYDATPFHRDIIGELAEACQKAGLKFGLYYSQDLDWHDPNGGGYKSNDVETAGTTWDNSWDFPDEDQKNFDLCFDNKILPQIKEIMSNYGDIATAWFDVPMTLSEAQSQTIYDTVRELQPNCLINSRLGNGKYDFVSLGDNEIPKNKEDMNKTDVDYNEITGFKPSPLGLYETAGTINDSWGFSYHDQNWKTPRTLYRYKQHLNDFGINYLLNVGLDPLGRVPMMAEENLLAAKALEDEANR
The series is classed as biochemical. The settings on record: assay details in supplement; MBP fusion. From the text:
p-nitrophenol release, initial-rate kinetics on MBP-AlfC

Substrate in series [1]: C[C@@H]1O[C@@H](Oc2ccc([N+](=O)[O-])cc2)[C@@H](O)[C@H](O)[C@@H]1O
The format is biochemical, Prevotella nigrescens. The note with it: assay details in supplement. From the text: p-nitrophenol release, initial-rate kinetics on Δ20PnfucA

In the case of `C[C@@H]1O[C@@H](Oc2ccc([N+](=O)[O-])cc2)[C@@H](O)[C@H](O)[C@@H]1O` [pNP-Fuc], the Km at MBP-PnfucA came out at 250 ± 20 µM; on MBP-AlfC it was 620 ± 60 µM.

B1: Δ20PnfucA (Prevotella nigrescens CC14M) (protein)
chain: QTNSQQQESNNRATTTESVPQKYIPTAENLAARKRFEGFRFGIFLHWGIYSTFAQGEWYLNNKINKDEYAKAASAFYPSYFDADAWISAIKASGAKYITFTSRHHDSFSMFKTKESNYNIVDATPFKRDVLKELANACHKQNIDLHIYYSILDWIREDYPIGRTGLYTGRKLKPNYGTYFNFMKGQVSELLHNYGKVGAIWLDGYWDHDSDSIPFDWRMEEFYRYIHSIQPACLIGNNHHIAPIDGEDFQMFERDLPGENKAGLSGQAISRLPLEACQTMNGMWGYKVSDINYKSTSQLIELLVRSAAKGSNLLLNIGPQPNGELPALALDRLQGIGKWMQQYGETIYETMAGDVAEADWGVSTSKGKKTYLHVLEQDAKTISCALSVKPKRVIDFASRQPLSFHYDKKTKTLTTHIGSHRNVVDYIIEIEK
notes: 20 N-terminal residues (signal peptide) removed; apparent mass ~52 kDa; codon-optimized synthetic gene
On to B1, for which, in series [1], the Km is 560 ± 50 µM, the kcat came to 66.5 ± 2 s⁻¹ and the kcat/Km is 119000 M⁻¹ s⁻¹.
